According to doi:10.1101/2020.02.28.970301, “Picomolar affinity antagonist and sustained signaling agonist peptide ligands for the adrenomedullin and calcitonin gene-related peptide receptors” (bioRxiv, 2020):

Target: T1, CLR ECD (29-144) as it stands in MBP-RAMP2.55-140[L106R]-(GSA)3-CLR.29-144-H6 (human, UniProt Q16602 29-144)
T1 construct: calcitonin receptor-like receptor (CLR), human, extracellular domain, residues 29-144; joined to m5 on one chain by the (GSA)3 linker in the crystallised fusion m4; source: E. coli, purified (as part of the fusion m4); not shown: His6, C-terminal, kept
Test: crystal structure; bacterially expressed MBP-RAMP2 ECD-(GSA)3-CLR ECD mixed with peptide 1:1.2; hanging drop, 20% PEG MME 5000, 0.1 M sodium HEPES pH 8.2, 150 mM sodium formate, 3% DMSO; 1.83 Å
Settings: both partners purified

T1 sequence (Q16602 29-144, stated change not applied): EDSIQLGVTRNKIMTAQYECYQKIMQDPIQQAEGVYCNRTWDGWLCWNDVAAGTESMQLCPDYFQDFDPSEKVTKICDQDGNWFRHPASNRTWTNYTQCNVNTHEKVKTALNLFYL

- binding result: binds
B1: RAMP2 ECD (55-140, L106R) as it stands in MBP-RAMP2.55-140[L106R]-(GSA)3-CLR.29-144-H6 (domain or fragment, human, UniProt O60895 55-140, looked up)
chain: GGTVKNYETAVQFCWNHYKDQMDPIEKDWCDWAMISRPYSTLRDCLEHFAERFDLGFPNPLAERIIFETHQIHFANCSLVQPTFSD
notes: receptor activity-modifying protein 2 (RAMP2), human, extracellular domain, residues 55-140; joined to m6 on one chain by the (GSA)3 linker in the crystallised fusion m4; source: E. coli, purified (as part of the fusion m4); not shown: MBP, N-terminal, kept
